Assay results from the DeepSol protein solubility set.

Assay: soluble on expression in E. coli; label from the status in PepcDB or PDB records

Sequence	soluble on expression in E. coli
MGSDKIHHHHHHMINHHPNSDVLAQFVAGTLPASVSVLVASHVELCSECTRAVQALTEQAAIDAFGESSQEALRDASQPAGLADVSGLDDFDGLDDFDTSDQFGDSDEFADCINAITALERDDTQQLPQTVTEIAVGGERIPLPTALRSIPLKEWQGMGKLSRSRLALDDGDLRMSLLHIDKGGSVPCHTHKGFEITLLLQGSFTDEMGEYRKGDFIWLDGQHTHQPVTEKGCVCLTVSSDAIRFTQGVSQLLNPIGRFIY	not soluble
MNIQWFPGHMAKTRRILAENLKMVDVVVELLDARIPASSKNPEIDGIVKNKPKIVVLNKADLADEKISNEWSKWYNSQGYATIFIDSIKGTGIKQLKDQMRDIMKDRIERDRQRGRIFRPIRTMIVGIPNVGKSSLINKIAGKKSAVTGDRPGVTRNKQWINVNNEIQLMDTPGILWPKFEDKTVGINLAVTGAIKDEIIDTVELASILLEHLSKTYPENIKKRYKLESLQDKKGYELLEEAGKKRGCIISGGEVDLTRIAAIVLDEFRGGKIGRITLERPGDAVQELVAD	not soluble
MSYVIDRRLNGKNKSTVNRQRFLRRYRDHIKKAVEEAVSRRSITDMEHGEQISIPGRDIDEPVLHHGRGGKQTVVHPGNKEFTTGEHIARPQGGAGGKGPGKAGNSGEGMDEFSFQITQEEFLEFMFEDLELPNLVKRNLTGTDTFKTVRAGISNEGNPSRINIIRTLRSAHARRIALSGSSRAKLREATSELERIKREEPDNFGDIQALEVEIDRLKARIRRVPYLDTFDLKYNLLVKQPNPSSKAVMFCLMDVSGSMTQATKDIAKRFFILLYLFLKRNYDKIDVVFIRHHTSAREVDEEEFFYSRETGGTIVSSALKLMQEIMAARYPSSDWNIYAAQASDGDNWNDDSPICREILTKQIMPFVQYYTYVEITPREHQALWYEYERIGDDFADTFAQQQLVSAGDIYPVFRELFQRRLVSAAALEHHHHHH	not soluble
METLLLVQLFHELALKGKNRPFFLKRAKAHVRRALKGLGVALEGEWPMALLFRLPEEAWPEAKARLQDTLGVERFARVHRTPPDLEALKAALEKALEGQAFGSFRITAKRSDKAFPLTSPEIERALGAFVKGKTGAPVRLKGAEREFVVRVLPGAALLEVERHPGPGGLPPGVSGRVVALLSGGIDSPVAAYRLMRRGAEVVLVHFHPFPLLSGASREKAKALAERLARFQHRLRLHLVPFSEVQRHIIVEAPTAYRVVLYRRYMLRIAEAIAREEGALALCTGDSLGQVASQTLENLHAVNQAATLPVFRPLIGWDKEEIVAEAQRIGTYATSILPDEECCTLFAPKHPVTRARLEVVLETEARLPTEELLALALKEREVLTYTWPGKPLPEEPEGAFIMEHGPA	soluble
GPGSMEWSSQSALPGVEGSPGYGRLCSATSGGVGAFQQFSPATAATVGDTTSVPTEAPSSVSITVGEAMDGVALQCERRGLTNAATWLSEMSLHALPSLLATPLQACSYGGHGGNSLFSPLHRAIHLDSGVFGDHAIAGGVRSTPSAGWQRLHRVALGYFIKGEYQRCHHLILREVMRNTAVGSSCGVPLPSTTQRTWPMPAGEVPDNEGGLSLPLPEVVRGFRTTTLPPLLQFLSLYALFMDGVKAKQLSNNASQGGGAESSSMGRGGQQRALHPHARVLRAYLLEAMRNPVNMLNLPSSNNSDPEPQHGDGGDDGAALHVAVGGALPGAHHTSSAKRPWTTSSAVWLASRAVSAATTTGTAAVMTAGASASRPRGNKAGQLHARYSLPLHCCLVCLLERLSSRLSSRESSGSARRRIGSGTYVGLVAYRSVPVVAHGCSAAGTSHAPGKCDVSAGGGECQPTTAVRLGRPRVPRES	not soluble
MSLIRVSSAVQRHAQKLIVLFSLLFGASLLMSDNGFATDIKNTNASSPVNSESTKPTKAGEVKNVVRFAKTGSFDNDTVVRLARQLAKKPYVALKDPLPESLANISYDEYRDIRFKPDSAVWKADGLPYQMQLFHRGFFFQDLIEIALVEGNQATHLSYDPNMFTAGEVLQQNLPTEDIGYSGLRVHYPLNSPSYFDELFVFQGASYFRALGKGNAYGLSARGLAIKTADPAGEEFPIFRAFWVEKPNYDTNLIVVHALLDSPSVSGAYRFSIRPGENTRMDVEAVLFPRVELSKVGLAPATSMFMHSPNGREKTDDFRPSVHDSDGLLMINGRGERLWRPLANPSTLQVSAFMDNSPQGFGLMQRERDYANYQDLEAHYEKRPSLWVEPVGNWGPGAVVLTEIPTQSEIHDNIVAFWKPAQPLAAGSEYRFSYHLNWGAQPEANPQAITVSRTASGRADIAKPTPKRLFVIDYQVQGAKPAQMPEPKVRSNAGVISNVVLRDNPANNGYRLSFEFDPGEVTLAELRAELTLQEARPVETWLYRWTLEGGSHHHHHH	soluble
MKLYFIINPAAKNGRSVSIWKQLQPLLDREGIAYQAYWTSRKGEGKEIARRIGEESVEPTVIAAVGGDGTVHEVVNGAGSFPHVAIGCIPAGTGNDFVRGFRLARKPKQALQRLLSDVRSGKDLAFDLGRFASSAVPDGVFANSIGCGFDAHIARMANRSKWKGRLNRFGLGSFIYVFYLVRELFRYQPVDLDICVDGQNYSFLKAWLATASNHPYYGGGMRIAPSVRADDGLLHVTVVGPMPRWKILALFLTVFWGGHVRMKEVCVFTGRNVRIRPAAPVLIHADGEDAGEGEVFAWIEPGRLRVIGVKTR	not soluble
MGHHHHHHSHMRVFALQLESFKENLMQSLFNSIPKKSVIVLPEYVINPFFHHNMGLDVNEISDQSARAVEFLSQKCEELDLIVSAPVLLEEHSKIYKKIALISKESVKYYTQQRLIPYPHWDEESFFDNEKSAFKELLVFERDGLKFAPLFGFEAHFDEIWVQAKNQGVDVVLLSSVATFESNERWRLLCQMRAFCASCVVVRANRIGAYRQIIVEEDQKNEFLWKFYGDSFVALPNGAIEDSLEGKMGALNAQIDKNDIDEWAKLWHFRTIKEG	soluble
MNVKEVVTEEQLHDVLPVLQQLRTKLSKEETSSLFRNMKEENYKLFSLRNEDDEVVSLAGVAICTNFYNKKHVFVYDLVTAEAHRSKRHGKVLLSYIENWGKENECESIVLTSAFSRIDAHRFYEREGYDKVSYSFHKEL	not soluble
MGSDKIHHHHHHMTSVEPTKAVLFLQGPPSILWTEFARAFEQAGVKTHHVNFTLGDFLFWRKRGAKNYRGSFSKWPAYLRRLIAEKGITDIVYYADRLPYHAKAAEIGEELGVRCHAVEWGYLRPDWLTFERDGMGRFSHFPNDPKAIRAIAAKVEEPDIAVKYPHTFGQEAFNEVIYNLLNFFGRPFYPLYNADKYYSALVDYLPWLLKAGVKPARLPEGFLEDGQPPFYLVALQLQSDYQIRANSPYRHLRDMMRQVIASFVKNAPAGSKLLFKQHPLDNGLERWHKVLRHIAREFKIEDRVVFIEEGDLHDILQKTAGVVIVNSTVGLHSLRAQKPTIVLGCAVFDVPGLTHQGRLDDFWKRPEPVDPELMRDLVKAMAATIQIKGDFFNKAGRQAAIGAMVQRVIEGTVNMPDAFIDPPPRLTSPKGILTVLGRPVELDWEEDAAVPDMTYARSGPIR	not soluble
AHHHHHHGSKVEGFVASLRNAETIDDLFAILKKKGAPVVEFDGMKKLVIVEGDFEGEKFWTEINGAKANLALGDAMLNAASVPFKCKRDFTGGNLILLDFDSIESNEFLIAYVSEKSGVYFHVKAEEVKEITKEEYDELKDRMPEFKAKSYSEEEMEGMGAFFG	soluble
MSTKELEERKVCFFCKILGFLSFPAIKIRIGTPANTISRHLTGFASYCIHLAVGVAHTRPEPELADDSRCYGNILDLVKRKKVTNWTQTRLVVEGKLGEGLRGIAYKVKHRNTMKCLKLLPLSWTSRNKEALEDLVALRSLKTIKKETPNYLTFFDSFVLTNLPASTQDKLNQLDPQCPATHYLGLLVELGSNSLDNTMLTTAVEGLSIVKQLVLSLVIAKRRLDTNHNDVHPGNVLVKRSASPKTLKYTLDGKVIRIPSHGLVVGIIDFSEASFGRANGNSDVGFLSFITEEISKTLSKAENRTFQTAIDGLTDARSITAIYPNASIFKKH	not soluble
MGSDKIHHHHHHMRKLISIILLLLTININSQIVELRPVKVPAEHAEYFETIHTEYSIKTAQDAKDKGKLYGWWVAKRLNTNEDDFNYLFITVHPSVESLIDNEYWWQNSEEVTGYKPEILYKMADLFEFDKQYIYQVEMQIPDAAEAKYIIINFATPDDLNTVLKESKEIVMPHFQKNLIKSGMVGWGVATKITPQGSNYSSFSTWDSYDSLENMMKHLGGGAAIEGLPLNKLTPIEWSMRPIFRVITGTK	not soluble
MSELNLSPDKLTVLLMGGSFGAGNIKETLDELLDTDRDFQILVITGKNESLKEKIEKKLMSRYHDKNVCVLGYTDKMNDILASIDVLVSKPGGLTTTEALLKDVPMIVPYYIPGQEEENLDFLSNCGAALRTTKKYNLSILLKVLIDDPSRLEMLKRNIKSIRKSNSAQNIANLILNIISGLEHHHHHH	not soluble
MDIGDNSKFDSATDLPVEQEQEQETEQEGEPEESSEQDLVEEVDWKDIPVPADAGPNMKWEFQEISDNFEYEAPADNKGSEFLEKWDDFYHNAWAGPGLTEWKRDRSYVADGELKMWATRKPGSDKINMGCITSKTRVVYPVYIEARAKVMNSTLASDVWLLSADDTQEIDILEAYGADYSESAGKDHSYFSKKVHISHHVFIRDPFQDYQPKDAGSWFEDGTVWNKEFHRFGVYWRDPWHLEYYIDGVLVRTVSGKDIIDPKHFTNTTDPGNTEIDTRTGLNKEMDIIINTEDQTWRSSPASGLQSNTYTPTDNELSNIENNTFGVDWIRIYKPVEKLEHHHHHH	soluble
MVAVKGLSEREVVADTVIWPIQFTVADNQLSSLFATVDQQTQLITQFLVEKGVDRAAISLSAPAVIDKKAQQYGEDRAEFRYLATQTLTVYSKQVDQVRKIISEIGQLGKQGVVFNQDPYNNRVEFSFTGLNAIKPDMIEEATKQAREVAQKFAKDSQSTLGKIKTASQGQFSITDRDNNTPYIKNVRVVTTVEYYLSDLEHHHHHH	not soluble
MPNTIRLHRVLSAPPERVYRAFLDPLALAKWLPPEGFVCKVLEHDARVGGAYKMEFLAFASGQKHAFGGRYLELVPGERIRYTDRFDDAGLPGDMITTITLAPLSCGADLSIVQEGIPDAIPPENCYLGWQQSLKQLAALVEPDMPGLEHHHHHH	soluble
MYQVITMYGDNEPWWFFDDWQEDIVQEKTFDNLTDAETYYVEVWQKLSQNYTYVNTKPNYLTAFWNDGEERWCEECDEDLQQYFGLALLENHHAVTFENKAEFTTISNHFGKTKFCKRKVILEHHHHHH	soluble
MDANEKKEVIKKRFQEIAMSGGTCCSGGGCCGDSSSSDISRAIGYSEADIEAVPDANMGLGCGNPASIAELKPGDIVLDLGSGAGFDCFLAAQKVGNSGKVIGVDMTPEMVEKVQANARKYGYSNVEFRQGDIEALPVEDSSVDVIISNCVINLAPDKEKVFREAFRVLKLGGRLYISDLVLLDELPEDLKNDRDLLAGCVAGAVLKEEYLKLLKRAGFSVEILAEDPDISKSQYKGLPVESLKLKAWVLEHHHHHH	soluble
MGSDKIHHHHHHDDDNDYYRYALPNALVTVKPVADNSFFMQLDDSTTLLPVNMKNSPYGEKEVRALVNFDPVNESSGEYDKAVHINWIDSILTKPIAGDLGDKNDEVYGTDPVDMINDWVTIAEDGYLTLRFRTMWGNRSQAHFVNLLMSKDAENPYEVEFRHNAFGDVYGEPADGLVAFNLDSLPDTEGKTVKLKLKWKSFNGEKTAEFDYCTRKSTPANSAAITAGRSVLRLK	not soluble
PRRLEPLIEDGLIDEVVRPLMSGKEASVYVVRCGDSLRCAKVYKEANKRSFRQAAEYQEGRKVRNSRQARAMAKGSKYGRREQEEAWQNAEVAALFRLAGAGVRVPKPYDFLDGVLLMELVADADGDAAPRLNDVTLEPDEARRHHAFLIRQIVAMLCAGLVHGDLSEFNVLLGPDGPVIIDLPQAVDAAGNNHAFSMLERDVGNMAAYFGRFAPELRQTRYAKEMWALYEAGELTAETPLSGTFVEAEEAADVRAVLREIEAAQREEARRQALRQADDAPRGEREE	not soluble
